Test results reported in article PMC13458692.

Target: Biotinylated MR1-β2m-5-OP-RU (UniProt Q95460)
Assay: SPR

Chain of UniProt Q95460 (Q95460 23-302, chain 1 of 2): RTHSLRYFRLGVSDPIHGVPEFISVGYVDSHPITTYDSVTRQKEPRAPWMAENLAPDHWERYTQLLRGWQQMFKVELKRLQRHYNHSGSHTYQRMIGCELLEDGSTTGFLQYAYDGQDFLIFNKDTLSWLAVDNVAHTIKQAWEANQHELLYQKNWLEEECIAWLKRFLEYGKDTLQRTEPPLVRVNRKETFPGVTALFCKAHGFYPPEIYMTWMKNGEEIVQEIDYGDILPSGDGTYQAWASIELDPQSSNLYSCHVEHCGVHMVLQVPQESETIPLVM
Chain of UniProt Q95460 (P61769 21-119, chain 2 of 2, further chain): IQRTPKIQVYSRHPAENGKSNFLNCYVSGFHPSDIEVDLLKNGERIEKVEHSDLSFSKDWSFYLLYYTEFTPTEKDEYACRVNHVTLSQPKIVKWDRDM

A-F7 (TRAV1-2/TRBV6-1) adult MAIT TCR, soluble
Kd: 1.92 µM
